Reference: patent US20190119318A1

Experiments:
[1] = target: human polyclonal IgG (Gammanorm) (human); experiment: column DBC; base H40; ligand 23.0 mg/ml
[2] = target: human polyclonal IgG (Gammanorm) (human); experiment: column DBC; base C3; ligand […]
[3] = target: human polyclonal IgG (Gammanorm) (human); experiment: column DBC; base A63b; ligand 6.4 mg/ml
[4] = target: human polyclonal IgG (Gammanorm) (human); experiment: column DBC; base S9; ligand 18.4 mg/ml
[5] = target: human polyclonal IgG (Gammanorm) (human); experiment: column DBC; base A63b; ligand 16.7 mg/ml
[6] = target: human polyclonal IgG (Gammanorm) (human); experiment: column DBC; base A56; ligand 7.9 mg/ml
[7] = target: human polyclonal IgG (Gammanorm) (human); experiment: column DBC; base A56-2; ligand 19.2 mg/ml
[8] = target: human polyclonal IgG (Gammanorm) (human); experiment: column DBC; base A62a; ligand 9.6 mg/ml
[9] = target: human polyclonal IgG (Gammanorm) (human); experiment: column DBC; base C4; ligand 15.2 mg/ml
[10] = target: human polyclonal IgG (Gammanorm) (human); experiment: column DBC; base A33; ligand […]; conditions: ligand content 6.5 mg/ml
[11] = target: human polyclonal IgG (Gammanorm) (human); experiment: column DBC; base A38; ligand 11.6 mg/ml
[12] = target: human polyclonal IgG (Gammanorm) (human); experiment: column DBC; base A56-2; ligand […]
[13] = target: human polyclonal IgG (Gammanorm) (human); experiment: column DBC; base A56; ligand 19.2 mg/ml
[14] = target: human polyclonal IgG (Gammanorm) (human); experiment: column DBC; base A20; ligand 21.1 mg/ml
[15] = target: human polyclonal IgG (Gammanorm) (human); experiment: column DBC; base A20; ligand 6.4 mg/ml
[16] = target: human polyclonal IgG (Gammanorm) (human); experiment: column DBC; base A54; ligand […]; conditions: ligand content 6.7 mg/ml
[17] = target: human polyclonal IgG (Gammanorm) (human); experiment: column DBC; base A38; ligand 15.8 mg/ml
[18] = target: human polyclonal IgG (Gammanorm) (human); experiment: SPR; after 100 CIP cycles 0.5 M NaOH
[19] = target: human polyclonal IgG (Gammanorm) (human); experiment: SPR; vs reference Zvar6; 0.5 M NaOH
[20] = target: human polyclonal IgG (Gammanorm) (human); experiment: column DBC; base A56-2; ligand 12.5 mg/ml
[21] = target: human polyclonal IgG (Gammanorm) (human); experiment: column DBC; base A56; ligand […]; conditions: ligand content 7.1 mg/ml
[22] = target: human polyclonal IgG (Gammanorm) (human); experiment: column DBC; base A38; ligand […]
[23] = target: human polyclonal IgG (Gammanorm) (human); experiment: column DBC; base C3; ligand 15.1 mg/ml
[24] = target: human polyclonal IgG (Gammanorm) (human); experiment: column DBC; base H35; ligand 20.3 mg/ml
[25] = target: human polyclonal IgG (Gammanorm) (human); experiment: column DBC; base C3; ligand 11.9 mg/ml
[26] = target: human polyclonal IgG (Gammanorm) (human); experiment: column DBC; base P10; ligand 19.0 mg/ml
[27] = target: human polyclonal IgG (Gammanorm) (human); experiment: column DBC; base A54; ligand 21.1 mg/ml
[28] = target: human polyclonal IgG (Gammanorm) (human); experiment: column DBC; base A63b; ligand 10.6 mg/ml
[29] = target: human polyclonal IgG (Gammanorm) (human); experiment: column DBC; base A56; ligand 15.2 mg/ml
[30] = target: human polyclonal IgG (Gammanorm) (human); experiment: column DBC; base H35; ligand 12.3 mg/ml
[31] = target: human polyclonal IgG (Gammanorm) (human); experiment: column DBC; base H40; ligand […]; conditions: ligand content 6.9 mg/ml
[32] = target: human polyclonal IgG (Gammanorm) (human); experiment: column DBC; base H31; ligand […]
[33] = target: human polyclonal IgG (Gammanorm) (human); experiment: column DBC; base H31; ligand 20.0 mg/ml
[34] = target: human polyclonal IgG (Gammanorm) (human); experiment: column DBC; base C4; ligand 11.2 mg/ml
[35] = target: human polyclonal IgG (Gammanorm) (human); experiment: column DBC; base A62a; ligand […]
[36] = target: human polyclonal IgG (Gammanorm) (human); experiment: column DBC; base A20; ligand […]
[37] = target: human polyclonal IgG (Gammanorm) (human); experiment: column DBC; base H35; ligand […]
[38] = target: human polyclonal IgG (Gammanorm) (human); experiment: column DBC, 6 min residence; agarose beads; ligand 10.8 mg/ml
[39] = target: human polyclonal IgG (Gammanorm) (human); experiment: column DBC; ligand 10.8 mg/ml; after 6 x 4 h 0.5 M NaOH
[40] = target: human polyclonal IgG (Gammanorm) (human); experiment: column DBC; vs reference Zvar4; 0.5 M NaOH
[41] = target: human polyclonal IgG (Gammanorm) (human); experiment: column DBC, 6 min residence; agarose beads; ligand 7.2 mg/ml
[42] = target: human polyclonal IgG (Gammanorm) (human); experiment: column DBC, 6 min residence; agarose beads; ligand […]
[43] = target: human polyclonal IgG (Gammanorm) (human); experiment: column DBC; ligand 7.2 mg/ml; after 6 x 4 h 0.5 M NaOH
[44] = target: human polyclonal IgG (Gammanorm) (human); experiment: column DBC; ligand […]; after 6 x 4 h 1.0 M NaOH
[45] = target: human polyclonal IgG (Gammanorm) (human); experiment: column DBC; ligand […]; after 6 x 4 h 0.5 M NaOH
[46] = target: human polyclonal IgG (Gammanorm) (human); experiment: column DBC, 6 min residence; agarose beads; ligand […]; remark: listed apart in the source
[47] = target: human polyclonal IgG (Gammanorm) (human); experiment: column DBC; vs reference Zvar4; 1.0 M NaOH
[48] = target: human polyclonal IgG (Gammanorm) (human); experiment: column DBC; ligand 9.7 mg/ml; after 6 x 4 h 0.5 M NaOH
[49] = target: human polyclonal IgG (Gammanorm) (human); experiment: column DBC, 6 min residence; agarose beads; ligand 9.7 mg/ml
[50] = target: human polyclonal IgG (Gammanorm) (human); experiment: column DBC; ligand 9.7 mg/ml; after 6 x 4 h 1.0 M NaOH
[51] = target: human polyclonal IgG (Gammanorm) (human); experiment: column DBC, 6 min residence; agarose beads; ligand 9.7 mg/ml; remark: listed apart in the source
[52] = target: human polyclonal IgG (Gammanorm) (human); experiment: column DBC; ligand 7.0 mg/ml; after 6 x 4 h 0.5 M NaOH
[53] = target: human polyclonal IgG (Gammanorm) (human); experiment: column DBC, 6 min residence; agarose beads; ligand 7.0 mg/ml

## Zvar(Q9A,N11E,Q40V,A42K,N43A,L44I)6 (designed binder)
[1]
  Qb10% 2.4 min: 41 mg/mL
  Qb10% 6 min: 65 mg/mL
[2]
  Qb10% 2.4 min: 48 mg/mL
  Qb10% 6 min: 59 mg/mL
[3]
  Qb10% 2.4 min: 42 mg/mL
  Qb10% 6 min: 46 mg/mL
[4]
  Qb10% 2.4 min: 56 mg/mL
  Qb10% 6 min: 75 mg/mL
[5]
  Qb10% 2.4 min: 53 mg/mL
  Qb10% 6 min: 69 mg/mL
[6]
  Qb10% 2.4 min: 47 mg/mL
  Qb10% 6 min: 55 mg/mL
[7]
  Qb10% 2.4 min: 61 mg/mL
  Qb10% 6 min: 82 mg/mL
[8]
  Qb10% 2.4 min: 56 mg/mL
  Qb10% 6 min: 72 mg/mL
[9]
  Qb10% 2.4 min: 57 mg/mL
  Qb10% 6 min: 82 mg/mL
[10]
  Qb10% 2.4 min: 44 mg/mL
  Qb10% 6 min: 53 mg/mL
[11]
  Qb10% 2.4 min: 48 mg/mL
  Qb10% 6 min: 72 mg/mL
[12]
  Qb10% 2.4 min: 50 mg/mL
  Qb10% 6 min: 58 mg/mL
[13]
  Qb10% 2.4 min: 55 mg/mL
  Qb10% 6 min: 80 mg/mL
[14]
  Qb10% 2.4 min: 44 mg/mL
  Qb10% 6 min: 43 mg/mL
[15]
  Qb10% 2.4 min: 41 mg/mL
  Qb10% 6 min: 56 mg/mL
[16]
  Qb10% 2.4 min: 38 mg/mL
  Qb10% 6 min: 46 mg/mL
[17]
  Qb10% 2.4 min: 36 mg/mL
  Qb10% 6 min: 62 mg/mL
[18]
  remaining capacity 100 cycles: 87%
[19]
  capacity relative to ref. 100 cycles: 1.3
[20]
  Qb10% 2.4 min: 59 mg/mL
  Qb10% 6 min: 72 mg/mL
[21]
  Qb10% 2.4 min: 48 mg/mL
  Qb10% 6 min: 57 mg/mL
[22]
  Qb10% 2.4 min: 47 mg/mL
  Qb10% 6 min: 57 mg/mL
[23]
  Qb10% 2.4 min: 43 mg/mL
  Qb10% 6 min: 61 mg/mL
[24]
  Qb10% 2.4 min: 20 mg/mL
  Qb10% 6 min: 43 mg/mL
[25]
  Qb10% 2.4 min: 51 mg/mL
  Qb10% 6 min: 73 mg/mL
[26]
  Qb10% 6 min: 76 mg/mL
[27]
  Qb10% 2.4 min: 38 mg/mL
  Qb10% 6 min: 65 mg/mL
[28]
  Qb10% 2.4 min: 49 mg/mL
  Qb10% 6 min: 60 mg/mL
[29]
  Qb10% 2.4 min: 48 mg/mL
  Qb10% 6 min: 76 mg/mL
[30]
  Qb10% 2.4 min: 31 mg/mL
  Qb10% 6 min: 54 mg/mL
[31]
  Qb10% 2.4 min: 50 mg/mL
  Qb10% 6 min: 56 mg/mL
[32]; ligand content 6.5 mg/ml
  Qb10% 2.4 min: 37 mg/mL
  Qb10% 6 min: 38 mg/mL
[32]; ligand content 10.4 mg/ml
  Qb10% 2.4 min: 50 mg/mL
  Qb10% 6 min: 61 mg/mL
[33]
  Qb10% 2.4 min: 31 mg/mL
  Qb10% 6 min: 52 mg/mL
[34]
  Qb10% 2.4 min: 62 mg/mL
  Qb10% 6 min: 74 mg/mL
[35]
  Qb10% 2.4 min: 62 mg/mL
  Qb10% 6 min: 84 mg/mL
[36]
  Qb10% 2.4 min: 38 mg/mL
  Qb10% 6 min: 64 mg/mL
[37]
  Qb10% 2.4 min: 36 mg/mL
  Qb10% 6 min: 49 mg/mL

## Zvar(Q9A,N11K,H18K,D37E,A42R)4 with an additional N-terminal cysteine (designed binder)
[38]
  initial IgG capacity Qb10: 56.9 mg/mL
[39]
  remaining IgG capacity Qb10 after six 4 h cycles: 52.5 mg/mL
  remaining IgG capacity after six 4 h cycles: 92%
[40]
  capacity retention relative to ref. after six 4 h cycles: 1.3

## Zvar(Q9A,N11E,Q40V,A42K,N43A,L44I)4 with an additional N-terminal cysteine (designed binder)
[41]
  initial IgG capacity Qb10: 49 mg/mL
[42]
  initial IgG capacity Qb10: 56.3 mg/mL
[43]
  remaining IgG capacity Qb10 after six 4 h cycles: 44.2 mg/mL
  remaining IgG capacity after six 4 h cycles: 90%
[44]
  remaining IgG capacity Qb10 after six 4 h cycles: 56 mg/mL
  remaining IgG capacity after six 4 h cycles: 93%
[45]
  remaining IgG capacity Qb10 after six 4 h cycles: 53.6 mg/mL
  remaining IgG capacity after six 4 h cycles: 95%
[40]; ligand content 7.2 mg/ml
  capacity retention relative to ref. after six 4 h cycles: 1.5
[46]
  initial IgG capacity Qb10: 60.3 mg/mL
[47]
  capacity retention relative to ref. after six 4 h cycles: 1.67

## Zvar(N11K,H18K,S33K,D37E,A42R,N43A,L44I,K50R,L51Y)4 with an additional N-terminal cysteine (designed binder)
[48]
  remaining IgG capacity Qb10 after six 4 h cycles: 52 mg/mL
  remaining IgG capacity after six 4 h cycles: 92%
[49]
  initial IgG capacity Qb10: 56.3 mg/mL
[50]
  remaining IgG capacity Qb10 after six 4 h cycles: 48.1 mg/mL
  remaining IgG capacity after six 4 h cycles: 77%
[51]
  initial IgG capacity Qb10: 62.1 mg/mL
[40]
  capacity retention relative to ref. after six 4 h cycles: 1.53
[47]
  capacity retention relative to ref. after six 4 h cycles: 1.44

## Zvar(Q9A,N11E,N28A,N43A)4 with an additional N-terminal cysteine (designed binder)
[42]
  initial IgG capacity Qb10: 50 mg/mL
[52]
  remaining IgG capacity Qb10 after six 4 h cycles: 44.1 mg/mL
  remaining IgG capacity after six 4 h cycles: 90%
[53]
  initial IgG capacity Qb10: 49.1 mg/mL
[45]
  remaining IgG capacity Qb10 after six 4 h cycles: 46.2 mg/mL
  remaining IgG capacity after six 4 h cycles: 93%
[40]; ligand content 7.0 mg/ml
  capacity retention relative to ref. after six 4 h cycles: 1.5
